Assay results: the supplement of paper PMC10724198
± gives the standard deviation of the averaged measurements.

System: Saccharomyces cerevisiae
Experiment: protein stability index of tFT-peptide fusion (C-terminal peptide) (PSI (0-1 scale)); higher = more stable (slower turnover)
Conditions: genetic background: wild type; temperature: 30 C
Procedure: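 MPS profiling in S. cerevisiae of the tFT-X12 degron library: putative degron peptides plus stable controls, 12 aa, fused to the C-terminus of a sfGFP-mCherry timer. Cells are FACS-sorted into 8 mCherry/sfGFP bins and deep-sequenced. PSI runs from 0 (unstable) to 1 (stable). Backgrounds are wild type, das1Δ and doa10Δ at 30 °C, and wild type, das1Δ, cdc34-1 and cdc53-1 at 37 °C; 2-3 technical replicates each.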
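Further: PSI is a weighted mean of sequencing reads over stability bins, variants kept only with over 10 reads, mCherry proximal and sfGFP distal, peptide attached via GGGS linker.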

Sequence | protein stability index
VVQCRFPTPCVV | 0.376 ± 0.027
VVSLGGWCLYIY | 0.333 ± 0.019
VVVFGWIGYLYL | 0.288 ± 0.044
VVVHFVLVCSTS | 0.13 ± 0.024
VWFLLFVVWCGS | 0.204 ± 0.034
VWLAWCIVGGLG | 0.369 ± 0.028
VWVAWLGGAILA | 0.194 ± 0.022
VYCCVRSLRVAI | 0.428 ± 0.023
VYVRYYVRVVVI | 0.046 ± 0.016
WCFFFVGCCCFG | 0.481 ± 0.031
WCFGSLLIRFSL | 0.411 ± 0.0096
WDLYFSVVYRVV | 0.0544 ± 0.0073
WFFPVSPPVMAS | 0.211 ± 0.026
WFLFVLCAWGFF | 0.241 ± 0.012
WFLLSLSSFVSS | 0.351 ± 0.0038
WFSMSRLWVFYS | 0.0847 ± 0.027
WFSRCVSLGLCW | 0.302 ± 0.029
WFSVRQLVFVSG | 0.163 ± 0.019

Sequence | protein stability index
WISVRIFISCFF | 0.191 ± 0.035
WLCLAVLVRFPC | 0.248 ± 0.017
WQIGIYILQGLA | 0.163 ± 0.049
WSCVGLWGRFCC | 0.299 ± 0.0093
WSISFGLLVCWV | 0.191 ± 0.016
WVFVVWFVFVVG | 0.215 ± 0.02
WVGGVLLSVVGG | 0.192 ± 0.029
WVRLGRSWTTVG | 0.283 ± 0.016
WVRLWGVLEAQG | 0.332 ± 0.012
WVSFYLLFFFSF | 0.395 ± 0.017
YFFFPILCFCFF | 0.381 ± 0.018
YFLFLRLVFLFF | 0.178 ± 0.018
YILLRWVNLSCL | 0.156 ± 0.021
YPVAWSSAIIIR | 0.371 ± 0.017
YQKIARVSLAVS | 0.328 ± 0.025
YVIGLLFVVSGV | 0.251 ± 0.033
YYKGGYLYLRLS | 0.15 ± 0.018

Same assay, conditions: genetic background: wild type; temperature: 37 C

Sequence | protein stability index
VVFSLLLWLFIS | 0.194 ± 0.0057
VVGLSLLFSGGV | 0.727 ± 0.0093
VVQCRFPTPCVV | 0.496 ± 0.022
VVSLGGWCLYIY | 0.416 ± 0.0093
VVVFGWIGYLYL | 0.482 ± 0.062
VVVHFVLVCSTS | 0.271 ± 0.014
VWFLLFVVWCGS | 0.316 ± 0.0071
VWLAWCIVGGLG | 0.523 ± 0.0062
VWVAWLGGAILA | 0.272 ± 0.0045
VYCCVRSLRVAI | 0.5746 ± 0.0014
VYVRYYVRVVVI | 0.0659 ± 0.0096
WCFFFVGCCCFG | 0.537 ± 0.013
WCFGSLLIRFSL | 0.516 ± 0.013
WDLYFSVVYRVV | 0.093 ± 0.0024
WFFPVSPPVMAS | 0.265 ± 0.0075
WFLFVLCAWGFF | 0.3042 ± 0.00084
WFLLSLSSFVSS | 0.4555 ± 0.00088
WFSMSRLWVFYS | 0.106 ± 0.024
WFSRCVSLGLCW | 0.363 ± 0.017

Sequence | protein stability index
WFSVRQLVFVSG | 0.218 ± 0.0069
WISVRIFISCFF | 0.271 ± 0.0047
WLCLAVLVRFPC | 0.369 ± 0.018
WQIGIYILQGLA | 0.262 ± 0.015
WSCVGLWGRFCC | 0.57 ± 0.0094
WSISFGLLVCWV | 0.379 ± 0.066
WVFVVWFVFVVG | 0.356 ± 0.03
WVGGVLLSVVGG | 0.399 ± 0.059
WVRLGRSWTTVG | 0.549 ± 0.0057
WVRLWGVLEAQG | 0.3675 ± 0.0028
WVSFYLLFFFSF | 0.5 ± 0.015
YFFFPILCFCFF | 0.437 ± 0.0084
YFLFLRLVFLFF | 0.257 ± 0.0034
YILLRWVNLSCL | 0.283 ± 0.0069
YPVAWSSAIIIR | 0.506 ± 0.0061
YQKIARVSLAVS | 0.4779 ± 0.0035
YVIGLLFVVSGV | 0.385 ± 0.03
YYKGGYLYLRLS | 0.316 ± 0.036

System: Saccharomyces cerevisiae
Experiment: as above
Conditions: genetic background: wild type; temperature: 30 C
Remark: another data set of the same source

Sequence | protein stability index
VVFSLLLWLFIS | 0.216 ± 0.029
VVGLSLLFSGGV | 0.694 ± 0.021
VVQCRFPTPCVV | 0.476 ± 0.013
VVSLGGWCLYIY | 0.412 ± 0.025
VVVFGWIGYLYL | 0.327 ± 0.071
VVVHFVLVCSTS | 0.289 ± 0.038
VWFLLFVVWCGS | 0.309 ± 0.031
VWLAWCIVGGLG | 0.428 ± 0.03
VWVAWLGGAILA | 0.267 ± 0.021
VYCCVRSLRVAI | 0.496 ± 0.0097
VYVRYYVRVVVI | 0.115 ± 0.012
WCFFFVGCCCFG | 0.479 ± 0.0056
WCFGSLLIRFSL | 0.458 ± 0.024
WDLYFSVVYRVV | 0.114 ± 0.0017
WFFPVSPPVMAS | 0.288 ± 0.013
WFLFVLCAWGFF | 0.135 ± 0.0012
WFLLSLSSFVSS | 0.427 ± 0.015
WFSMSRLWVFYS | 0.217 ± 0.082
WFSRCVSLGLCW | 0.4176 ± 0.0036
WFSVRQLVFVSG | 0.218 ± 0.014
WISVRIFISCFF | 0.267 ± 0.022
